Measurements from patent US20240109965A1.
Where a chain is given by its changes, count along the chain named.

B1: A022600427 (protein)
chain: DVQLVESGGGVVQPGGSLRLSCVASGYVHKINFYGWYRQAPGKEREKVAHISIGDQTDYADSAKGRFTISRDESKNTVYLQMNSLRPEDTAAYYCRALSRIWPYDYWGQGTLVTVSSGGGGSEVQLVESGGGVVQPGGSLRLSCAASGFTFSSFAMTWVRRPPGKGLEWVATITNAGVTSYADSVKGRFTISRDNAKNTLYLQMNSLRPEDTALYICANARRTGPRAPTDIGSYRGQGTLVTVSSGGGGSGGGSEVQLVESGGGVVQPGGSLRLSCAASGSIFRSVFSSSTMEWYRQAPGKKRELVARIAPGEGTYYGALYADSVKGRFTISRDNAKNTVYLQMNSLRPEDTALYYCASGVAWGQGTLVTVSSGGGGSGGGSEVQLVESGGGVVQPGGSLRLSCAASGFTFRSFGMSWVRQAPGKGPEWVSSISGSGSDTLYADSVKGRFTISRDNSKNTLYLQMNSLRPEDTALYYCTIGGSLSRSSQGTLVTVSSA
B2: A022600462 (protein)
chain: B1 chain with D61E, W102Y, A176K

What was measured:
[1] = biological target: human T cell receptor (TCRαβ) on primary human T cells (human); assay: cell-based or functional assay
[2] = biological target: cynomolgus T cell receptor (TCRαβ) on primary cynomolgus T cells (cynomolgus); assay: cell-based or functional assay

Sequence of human T cell receptor (TCRαβ) on primary human T cells (human) (P0DTU3 134-275, chain 1 of 2): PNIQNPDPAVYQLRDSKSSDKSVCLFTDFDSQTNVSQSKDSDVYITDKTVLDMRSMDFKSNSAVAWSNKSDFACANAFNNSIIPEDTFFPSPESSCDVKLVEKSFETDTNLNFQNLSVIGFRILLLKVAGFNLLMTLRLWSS
Sequence of human T cell receptor (TCRαβ) on primary human T cells (human) (P01850 other isoform, or with tags, fused parts or gaps, chain 2 of 2, further chain): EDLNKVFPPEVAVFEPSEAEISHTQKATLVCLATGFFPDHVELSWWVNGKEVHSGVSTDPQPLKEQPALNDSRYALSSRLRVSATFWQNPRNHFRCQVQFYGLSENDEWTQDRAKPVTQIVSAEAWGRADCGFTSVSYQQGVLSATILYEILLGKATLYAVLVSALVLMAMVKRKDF

| Binder | IC50 (M), human T cell mediated HuH-7 cell killing, Human Donor #1 [1] [M] | IC50 (M), human T cell mediated HuH-7 cell killing, Human Donor #2 [1] [M] | IC50 (M), cynomolgus T cell mediated HuH-7 cell killing, Cynomolgus Donor #1 [2] [M] | IC50 (M), cynomolgus T cell mediated HuH-7 cell killing, Cynomolgus Donor #2 [2] [M] |
| --- | --- | --- | --- | --- |
| B1 | 3e-10 | 1.1e-10 | 2.3e-08 | 2.5e-10 |
| B2 | 2.8e-10 | 1e-10 | 3.9e-09 | 2.2e-10 |
